B1: library; numbered along this chain (parent)
chain: MRKPRAAVGSGHRKQAASQEGRQKHAKNNSQAKPSACDGLARQPEEVVLQASVSSYHLFRDVAEVTAFRGSLLSWYDQEKRDLPWRRRAEDEMDLDRRAYAVWVSEVMLQQTQVATVINYYTGWMQKWPTLQDLASASLEEVNQLWAGLGYYSRGRRLQEGARKVVEELGGHMPRTAETLQQLLPGVGRYTAGAIASIAFGQATGVVDGNVARVLCRVRAIGADPSSTLVSQQLWGLAQQLVDPARPGDFNQAAMELGATVCTPQRPLCSQCPVESLCRARQRVEQEQLLASGSLSGSPDVEECAPNTGQCHLCLPPSEPWDQTLGVVNFPRKASRKPPREESSATCVLEQPGALGAQILLVQRPNSGLLAGLWEFPSVTWEPSEQLQRKALLQELQRWAGPLPATHLRHLGEVVHTFSHIKLTYQVYGLALEGQTPVTTVPPGARWLTQEEFHTAAVSTAMKKVFRVYQGQQPGTCMGSKRSQVSSPCSRKKPRMGQQVLDNFFRSHISTDAHSLNSAAQ

Variants of: B1
Test: 8OG:A repair function score (normalized; synonymous = 0, nonsense = -1) (normalized log-likelihood score); higher = more repair activity (WT-like)
Conditions: with 8OG:A DNA repair reporter (GFP) in HEK-293 MUTYH KO cells
Summary of the method: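 After 72 h, viable mCherry+ cells were split into GFP+ (repair) and GFP− bins in three replicates per tile. These cells were MUTYH knockout HEK-293 cells holding lentiviral MUTYH cDNA NNN codon-scan libraries, kept in 10 pg/ml doxycycline and co-transfected with mCherry plus an 8OG:A GFP repair reporter. Sequencing of tile amplicons gave per-tile Rosace fitness scores, normalized into a repair function score anchored on synonymous and nonsense distributions. Synonymous medians were fixed at 0, nonsense at -1, and variants under 300 counts per million at the start were removed.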
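Also: cells sorted at 72 h after reporter transfection.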

Compared with MRKPRAAVGSGHRKQAASQEGRQKHAKNNSQAKPSACDGLARQPEEVVLQASVSSYHLFRDVAEVTAFRGSLLSWYDQEKRDLPWRRRAEDEMDLDRRAYAVWVSEVMLQQTQVATVINYYTGWMQKWPTLQDLASASLEEVNQLWAGLGYYSRGRRLQEGARKVVEELGGHMPRTAETLQQLLPGVGRYTAGAIASIAFGQATGVVDGNVARVLCRVRAIGADPSSTLVSQQHWGLAQQLVDPARPGDFNQAAMELGATVCTPQRPLCSQCPVESLCRARQRVEQEQLLASGSLSGSPDVEECAPNTGQCHLCLPPSEPWDQTLGVVNFPRKASRKPPREESSATCVLEQPGALGAQILLVQRPNSGLLAGLWEFPSVTWEPSEQLQRKALLQELQRWAGPLPATHLRHLGEVVHTFSHIKLTYQVYGLALEGQTPVTTVPPGARWLTQEEFHTAAVSTAMKKVFRVYQGQQPGTCMGSKRSQVSSPCSRKKPRMGQQVLDNFFRSHISTDAHSLNSAAQ [L234H], MRKPRAAVGSGHRKQAASQEGRQKHAKNNSQAKPSACDGLARQPEEVVLQASVSSYHLFRDVAEVTAFRGSLLSWYDQEKRDLPWRRRAEDEMDLDRRAYAVWVSEVMLQQTQVATVINYYTGWMQKWPTLQDLASASLEEVNQLWAGLGYYSRGRRLQEGARKVVEELGGHMPRTAETLQQLLPGVGRYTAGAIASIAFGQATGVVDGNVARVLCRVRAIGADPSSTLVSQQLWGLAQQLVDPARPGDFNQAAMELGATVCTPQRPLCNQCPVESLCRARQRVEQEQLLASGSLSGSPDVEECAPNTGQCHLCLPPSEPWDQTLGVVNFPRKASRKPPREESSATCVLEQPGALGAQILLVQRPNSGLLAGLWEFPSVTWEPSEQLQRKALLQELQRWAGPLPATHLRHLGEVVHTFSHIKLTYQVYGLALEGQTPVTTVPPGARWLTQEEFHTAAVSTAMKKVFRVYQGQQPGTCMGSKRSQVSSPCSRKKPRMGQQVLDNFFRSHISTDAHSLNSAAQ [S270N] is higher in “8OG:A repair function score” value: -0.751 for the first, -0.0408 for the second.

First: MRKPRAAVGSGHRKQAASQEGRQKHAKNNSQAKMSACDGLARQPEEVVLQASVSSYHLFRDVAEVTAFRGSLLSWYDQEKRDLPWRRRAEDEMDLDRRAYAVWVSEVMLQQTQVATVINYYTGWMQKWPTLQDLASASLEEVNQLWAGLGYYSRGRRLQEGARKVVEELGGHMPRTAETLQQLLPGVGRYTAGAIASIAFGQATGVVDGNVARVLCRVRAIGADPSSTLVSQQLWGLAQQLVDPARPGDFNQAAMELGATVCTPQRPLCSQCPVESLCRARQRVEQEQLLASGSLSGSPDVEECAPNTGQCHLCLPPSEPWDQTLGVVNFPRKASRKPPREESSATCVLEQPGALGAQILLVQRPNSGLLAGLWEFPSVTWEPSEQLQRKALLQELQRWAGPLPATHLRHLGEVVHTFSHIKLTYQVYGLALEGQTPVTTVPPGARWLTQEEFHTAAVSTAMKKVFRVYQGQQPGTCMGSKRSQVSSPCSRKKPRMGQQVLDNFFRSHISTDAHSLNSAAQ [P34M]
Second: MRKPRAAVGSGHRKQAASQEGRQKHAKNNSQAKPSACDGLARQPEEVVLQASVSSYHLFRDVAEVTAFRGSLLSWYDQEKSDLPWRRRAEDEMDLDRRAYAVWVSEVMLQQTQVATVINYYTGWMQKWPTLQDLASASLEEVNQLWAGLGYYSRGRRLQEGARKVVEELGGHMPRTAETLQQLLPGVGRYTAGAIASIAFGQATGVVDGNVARVLCRVRAIGADPSSTLVSQQLWGLAQQLVDPARPGDFNQAAMELGATVCTPQRPLCSQCPVESLCRARQRVEQEQLLASGSLSGSPDVEECAPNTGQCHLCLPPSEPWDQTLGVVNFPRKASRKPPREESSATCVLEQPGALGAQILLVQRPNSGLLAGLWEFPSVTWEPSEQLQRKALLQELQRWAGPLPATHLRHLGEVVHTFSHIKLTYQVYGLALEGQTPVTTVPPGARWLTQEEFHTAAVSTAMKKVFRVYQGQQPGTCMGSKRSQVSSPCSRKKPRMGQQVLDNFFRSHISTDAHSLNSAAQ [R81S]
The “8OG:A repair function score” value of the first is higher: 0.176 for the first, -0.535 for the second.

First: MRKPRAAVGSGHRKQAASQEGRQKHAKNNSQAKPSACDGLARQPEEVVLQASVSSYHLFRDVAEVTAFRGSLLSWYDQEKRDLPWRRRAEDEMDLDRRAYAVWVSEVMLQQTQVATVINYYTGWMQKWPTLQDLASASLEEVNQLWAGLGYYSRGRRLQEGARKVVEELGGHMPRTAETLQQLLPGVGRYTAGAIASIAFGQATGVVDGNVARVLCRVRAIGADPSSTLVSQQLWGLAQQLVDPARPGDFNQAAMELGATVCTPQRPLCSQCPVESLCRARQRVEQEQLLASGSLSGSPDVEECAPNTGQCHLCLPPSEPWDQTLGVVNFPRKASRKPPREESSATCVLEQPGARGAQILLVQRPNSGLLAGLWEFPSVTWEPSEQLQRKALLQELQRWAGPLPATHLRHLGEVVHTFSHIKLTYQVYGLALEGQTPVTTVPPGARWLTQEEFHTAAVSTAMKKVFRVYQGQQPGTCMGSKRSQVSSPCSRKKPRMGQQVLDNFFRSHISTDAHSLNSAAQ [L355R]
Second: MRKPRAAVGSGHRKQAASQEGRQKHAKNNSQAKPSACDGLARQPEEVVLQASVSSYHLFRDVAEETAFRGSLLSWYDQEKRDLPWRRRAEDEMDLDRRAYAVWVSEVMLQQTQVATVINYYTGWMQKWPTLQDLASASLEEVNQLWAGLGYYSRGRRLQEGARKVVEELGGHMPRTAETLQQLLPGVGRYTAGAIASIAFGQATGVVDGNVARVLCRVRAIGADPSSTLVSQQLWGLAQQLVDPARPGDFNQAAMELGATVCTPQRPLCSQCPVESLCRARQRVEQEQLLASGSLSGSPDVEECAPNTGQCHLCLPPSEPWDQTLGVVNFPRKASRKPPREESSATCVLEQPGALGAQILLVQRPNSGLLAGLWEFPSVTWEPSEQLQRKALLQELQRWAGPLPATHLRHLGEVVHTFSHIKLTYQVYGLALEGQTPVTTVPPGARWLTQEEFHTAAVSTAMKKVFRVYQGQQPGTCMGSKRSQVSSPCSRKKPRMGQQVLDNFFRSHISTDAHSLNSAAQ [V65E]
The “8OG:A repair function score” value of the first is higher: -0.00513 for the first, -0.196 for the second.

From the supplement of paper PMC11908140
